Our source for the Kd values is publication PMC3169596, “G4-DNA Formation in the HRAS Promoter and Rational Design of Decoy Oligonucleotides for Cancer Therapy”.

This data set concerns the target T1, MAZ-GST (UniProt P56270 1-477).
T1 sequence: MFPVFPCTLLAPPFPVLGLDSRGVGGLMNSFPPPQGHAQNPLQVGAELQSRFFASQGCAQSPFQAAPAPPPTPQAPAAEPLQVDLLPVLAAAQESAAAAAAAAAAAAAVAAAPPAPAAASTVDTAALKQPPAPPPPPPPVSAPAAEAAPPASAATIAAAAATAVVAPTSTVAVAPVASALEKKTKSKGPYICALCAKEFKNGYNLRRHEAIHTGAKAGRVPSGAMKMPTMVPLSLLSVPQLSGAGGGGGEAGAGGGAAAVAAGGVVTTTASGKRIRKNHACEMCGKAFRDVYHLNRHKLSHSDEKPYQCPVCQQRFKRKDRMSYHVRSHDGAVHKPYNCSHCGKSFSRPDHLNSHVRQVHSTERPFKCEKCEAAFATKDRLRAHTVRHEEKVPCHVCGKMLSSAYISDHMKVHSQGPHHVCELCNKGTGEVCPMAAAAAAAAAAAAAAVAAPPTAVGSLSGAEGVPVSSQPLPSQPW
The data set is described as follows: EMSA; 50 mM KCl, pH 7.4, poly d(I-C); apparent Kd given for the HRAS quadruplexes together; EMSA: 20 mM Tris-HCl pH 8, 30 mM KCl, 1.5 mM MgCl2, 1 mM DTT, 8% glycerol, 5 mM NaF, 1 mM Na3VO4, 2.5 ng/ml poly[dI-dC], 30 min room temperature (Figure 6c: pH). Conditions: protein: recombinant; tags: GST; label: 33P; antiparallel intramolecular G4 in K+. On the technique in general: A gel shift assay detects complexes by their altered migration in electrophoresis.

For the molecule TCGGGTTGCGGGCGCAGGGCACGGGCG (structured_DNA) [qhras-1 (quadruplex hras-1, H1)], the Kd is roughly 1500 nM.
